Laboratory results from article PMC7053772, “Characterization and assembly of the Pseudomonas aeruginosa aspartate transcarbamoylase-pseudo dihydroorotase complex” (PLoS ONE, 2020).

B1: Pseudomonas aeruginosa aspartate transcarbamoylase catalytic chain (enzyme, Pseudomonas aeruginosa (strain PAO1), UniProt Q59653 1-334, looked up)
chain: MPTDAKRPLQLNDQGQLRHFISLDGLPRELLTEILDTADSFLEVGARAVKKVPLLRGKTVCNVFFENSTRTRTTFELAAQRLSADVISLNVSTSSTSKGETLTDTLRNLEAMAADMFVVRHSDSGAAHFIAEHVSPNVAVINGGDGRHAHPTQGMLDMLTIRRHKGNFEQLSVAIVGDILHSRVARSNMLALKTLGCPDIRVIAPRTLLPIGLEEQYGVRVFTNADEGLKDVDVVIMLRLQRERMQGGLLPSEGEFFKLYGLTEKRLKLAKPDAIVMHPGPINRGVEIESAVADGAQSVILNQVTYGIAIRMAVLSMAMSGQNTQRQLEQEDAE
notes: Aspartate transcarbamoylase (ATCase) catalytic chain of Pseudomonas aeruginosa strain PAO1, gene pyrB; about 36-37 kDa; The pyrB gene was amplified by PCR and put into pETite; Removal of the His tag is not mentioned; also called ATCase; ATCase subunit
B2: Pseudomonas aeruginosa pseudo dihydroorotase (natural protein, Pseudomonas aeruginosa (strain PAO1), UniProt Q51551 1-423, looked up)
chain: MTISIRGARVIDPASDLDQVGDLHIEAGKIVAIGAAPAGFSAQKTLDGAGLVAAPGLVDLSVALREPGYGRKGNVESETRAAAAGGTTSLCCPPYTRPVLDTPAVAELILDRAREAGNAKVYPIGALTRGFGGEQLSELVALRDTGCVAFTNGLHGFASNRILRRALEYAATFDLTVIFTSQDTDLAEGGLAHEGPTASFLGLAGIPETAETVALARNLLLVEQSGVRAHFSQLTSARGIELVAQAQARGLPVTCDVALYQLILTDEALVGFSSLYHVQPPLRTRADREALREAVKNGVVQAIASHHQPHEADAKNAPFAATEPGISGAELLLPLAMTLVQDGLLDLPTLLARLSHGPAQALRLPAGRLAVGQAADLVLFDPQGSTLAGESWYSKGQNSPFVGHCLPGRVRYTLVDGHLTHEG
notes: Dimer by size exclusion chromatography; also called pDHO; pseudo-DHO; source: also co-transformed and co-purified with mutant ATCases

How the values were obtained:
[1] = target: T1, P. aeruginosa ATCase-pDHO complex (Pseudomonas aeruginosa, UniProt Q59653); experiment: colorimetric ATCase assay, carbamoyl phosphate saturation curves; type: biochemical; details: 8 mM aspartate, 37°C; PALA 0-500 nM; bisubstrate inhibitor
T1 construct: gene pyrB; both full-length subunits with N-terminal 6xHis tag (pETite), E. coli BL21(DE3), Ni-purified, mixed 1:1; 37 kDa + 45 kDa, 457 kDa dodecamer; with Dihydroorotase-like protein
T1 sequence (Q59653 1-334): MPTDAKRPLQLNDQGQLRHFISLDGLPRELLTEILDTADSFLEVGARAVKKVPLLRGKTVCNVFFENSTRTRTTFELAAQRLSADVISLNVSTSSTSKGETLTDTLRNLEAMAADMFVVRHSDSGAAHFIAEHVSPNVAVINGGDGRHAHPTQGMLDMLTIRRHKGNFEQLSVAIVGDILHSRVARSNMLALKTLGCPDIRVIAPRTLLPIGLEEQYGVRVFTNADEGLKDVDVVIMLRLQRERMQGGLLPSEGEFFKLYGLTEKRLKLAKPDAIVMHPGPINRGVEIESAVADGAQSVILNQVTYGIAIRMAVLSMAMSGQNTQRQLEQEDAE
T1 sequence (Q51551 1-423 partner): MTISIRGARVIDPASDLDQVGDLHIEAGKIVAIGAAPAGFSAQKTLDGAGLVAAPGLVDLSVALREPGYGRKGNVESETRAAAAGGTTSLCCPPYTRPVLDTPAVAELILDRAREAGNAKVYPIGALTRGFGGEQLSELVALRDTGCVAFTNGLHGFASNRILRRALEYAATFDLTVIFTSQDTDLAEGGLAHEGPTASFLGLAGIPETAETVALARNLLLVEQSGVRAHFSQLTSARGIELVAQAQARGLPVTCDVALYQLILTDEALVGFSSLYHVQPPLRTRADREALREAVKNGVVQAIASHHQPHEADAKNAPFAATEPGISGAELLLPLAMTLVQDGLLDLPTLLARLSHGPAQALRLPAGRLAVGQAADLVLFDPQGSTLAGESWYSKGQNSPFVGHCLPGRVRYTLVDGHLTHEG

purified protein [2] = substrate: N[C@@H](CC(=O)O)C(=O)O; experiment: purified protein; type: biochemical, Pseudomonas aeruginosa; details: 10 mM carbamoyl phosphate, 50 mM Tris/acetate pH 8.3, 37°C, Hill fit
purified protein [3] = substrate: NC(=O)OP(=O)(O)O; experiment: purified protein; type: biochemical, Pseudomonas aeruginosa; details: 8 mM aspartate, 50 mM Tris/acetate pH 8.3, 37°C, Hill fit, text b47 prints 2.5 mM, Table 3 (0 ATP series) 0.88 ± 0.03 mM
[4] = target: B2; experiment: SEC; complex reconstituted by mixing equimolar amounts of ATCase and pDHO; Superdex S-200, 50 mM Tris-HCl pH 7.5, 200 mM NaCl; fractions on SDS-PAGE; details: both partners purified
[5] = target: B1; experiment: cell-based or functional assay
[6] = target: the molecule itself; experiment: SEC; each Ni2+ column purified protein applied alone; Superdex S-200, 50 mM Tris-HCl pH 7.5, 200 mM NaCl; 2-mL sample of 5-10 mg/ml; calibrated column

Q: `O=C(O)C[C@H](NC(=O)CP(=O)(O)O)C(=O)O` [N-phosphonacetyl-L-aspartate] was tested. Which “colorimetric ATCase assay, carbamoyl phosphate saturation curves” value [1] did it give?
A: N-phosphonacetyl-L-aspartate is also a potent inhibitor of the of the P. aeruginosa enzyme

Q: How did the K0.5 (purified protein [2]) turn out when B1 was run?
A: 3.6 ± 0.41 mM

Q: And the Vmax (purified protein [2])?
A: 183 µmol/min/mg

Q: What about the kcat (purified protein [2]) of the same molecule?
A: 113 s⁻¹

Q: What about the kcat/Km (purified protein [2]) of the same molecule?
A: 31000 M⁻¹ s⁻¹

Q: And the K0.5 (purified protein [3])?
A: 2.8 ± 0.18 mM

Q: And the Vmax (purified protein [3])?
A: 142 µmol/min/mg

Q: What about the kcat (purified protein [3]) of the same molecule?
A: 87.6 s⁻¹

Q: What about the kcat/Km (purified protein [3]) of the same molecule?
A: 31000 M⁻¹ s⁻¹

Q: Does B1 bind [4]?
A: binds

Q: With B2 as the molecule, how does the “ATCase activity of a fixed amount of ATCase (4 ug) titrated with pDHO (0-24.3 ug); molar ratio of ATCase to pDHO at which the activity levels off” value [5] read?
A: 0.97 mol pDHO per mol ATCase

Q: What about the “stoichiometry N” value [6] of the same molecule?
A: 2
